# Columns and labels:
# [1] = Fluorescence of the intact dual-labeled conjugate versus singly labeled counterpart; type: physicochemical
# Excerpt: SEQ ID NO. 1 Val-Pro-Arg-Gly-Lys was synthesized by GeneMed Biotechnologies (South San Francisco, Calif.) and purified on reverse phase high performance liquid chromatography (HPLC). Its chemical identity was confirmed by Fast Atom Bombardment (FAB) mass spectroscopy and amino acid analysis. The peptide was reacted overnight with tetramethylrhodamine succimidyl ester in 0.1M sodium bicarbonate, pH 8.3. The reaction mixture was purified on reversed phase HPLC (C-18 column, particle size 15 μm, Waters Corp., Milford, Mass.). All chemically reactive dyes were purchased from Molecular Probes, Eugene, Oreg. The dye-peptide conjugate had the chemical structure of SEQ ID NO. 2 TMR-Val-Pro-Arg-Gly-Lys-TMR (designated T-VPRGK-T in FIG. 2) as shown in Formula I, below. A composite gradient of acetonitrile (ACN) in water was used to purify this conjugate. In a typical elution, the acetonitrile content was increased from 15% to 30% during the initial 15 minutes, followed by a 10-minute isocratic elution at 30% ACN, a 5-minute gradient to 50%, then 5-minute isocratic elution at 50% ACN. All solvents contained 0.1% trifluoroacetic acid. The molecular weight of the purified conjugate, determined by FAB mass spectroscopy, was 1379 which was the calculated molecular mass based on the elemental composition of C74H85N13O14.
# [2] = system: Vibrio parahaemolyticus; test: Use of fluorogenic protease substrate to detect Vibrio parahaemolyticus (cleavage by trypsin-like enzyme); type: cell-based; conditions: Vibrio parahaemolyticus cells, 1 mM EDTA, 50 mM phosphate buffer pH 7.2, incubated overnight; with vs without cells
# Description: Vibrio parahaemolyticus used in these experiments was a quality control strain for the Transport Swab System of Becton Dickinson Microbiology Systems (Cockeysville, Md.). It was purchased from American Tissue Culture Collection (ATCC accession no. 49398). Cells were grown at 37° C. in nutrient broth with 3 percent sodium chloride. Ten ml of overnight culture was centrifuged. Broth was disposed and 3 ml of assay buffer added (1 mM EDTA, 50 mM phosphate buffer at pH 7.2) containing 50 μl of dual labeled conjugate of formula I, 1000 dilution (see Example 1, procedure for making labeled peptide). To ensure complete cleavage the reaction mixture was incubated overnight. Fluorescence intensity of cuvettes with and without cells was measured, (tracings C and D, respectively).
substance,measurement,setting,value
TMR-Val-Pro-Arg-Gly-Lys-TMR (XPRGX; not fully specified; TMR dye at both ends) [T-VPRGK-T],fluorescence of dual-labeled conjugate versus singly labeled counterpart,[1],substantially lower fluorescence than its singly labeled counterpart
same,change in fluorescence on cleavage by the trypsin-like enzyme,[2],increase in fluorescence

# Source: US7256012B2, “Fluorogenic protease substrates based on dye-dimerization” (3M Innovative Properties Company, priority 1997, dated 2007)
